From US20170342349A1, “STABILIZED ENZYME COMPOSITIONS” (NOVOZYMES A/S, priority 2014, published 2017) come the findings set out here.

Assay [1] concerns the target TY145 (SEQ ID NO 3). Put plainly: Ki fitted from Suc-AAPF-pNA activity at 8 inhibitor concentrations in Model B detergent; IF relative to SEQ ID NO 3 (the reference itself).
For assay [2], the target named is Protease P (SEQ ID NO 5) variant Q64N. Briefly: Ki fitted from Suc-AAPF-pNA activity in Model B detergent; IF relative to SEQ ID NO 5.
The target in assay [3] is Protease P (SEQ ID NO 5) variant M103S. The description is as above.
Assay [4] deals with Protease P (SEQ ID NO 5) variant G128P. Described as above.
Assay [5] concerns the target Protease P (SEQ ID NO 5) variant G127S + G128P + G129S + Y130P + D131S + M134L. The assay is described as above.
Assay [6] has as its target Protease P (SEQ ID NO 5) variant Q64F. Described as above.
For assay [7], the target named is Protease P (SEQ ID NO 5) variant M103A. The description is as above.
Assay [8] concerns the target TY145 (SEQ ID NO 3) variant Q70F. Briefly: Ki fitted from Suc-AAPF-pNA activity at 8 inhibitor concentrations in Model B detergent; IF relative to SEQ ID NO 3.
The target in assay [9] is TY145 (SEQ ID NO 3) variant L184F. The description is as above.
Chain of TY145 (SEQ ID NO 3) variant L184F (chain, as listed by the source L184F L184F limits assumed): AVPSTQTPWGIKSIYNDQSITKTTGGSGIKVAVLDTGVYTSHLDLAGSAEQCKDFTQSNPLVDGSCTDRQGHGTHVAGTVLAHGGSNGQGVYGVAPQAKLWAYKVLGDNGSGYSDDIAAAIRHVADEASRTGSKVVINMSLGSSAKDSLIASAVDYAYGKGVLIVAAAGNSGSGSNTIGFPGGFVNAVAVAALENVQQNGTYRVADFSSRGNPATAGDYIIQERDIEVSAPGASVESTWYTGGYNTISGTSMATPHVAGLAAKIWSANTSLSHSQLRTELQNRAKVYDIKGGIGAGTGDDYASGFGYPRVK
In assay [10] the target is TY145 (SEQ ID NO 3) variant I150N. The assay is described as above.
Chain of TY145 (SEQ ID NO 3) (chain, as listed by the source limits assumed): as the sequence (chain, as listed by the source L184F L184F limits assumed) above, with F184L counted along it
Assay [11] concerns the target TY145 (SEQ ID NO 3) variant S111R. The assay is described as above.
The target of assay [12] is TY145 (SEQ ID NO 3) variant I150S. Described as above.
Chain of TY145 (SEQ ID NO 3) variant I150S (chain, as listed by the source I150S I150S limits assumed): as the sequence (chain, as listed by the source L184F L184F limits assumed) above, with I150S, F184L counted along it
Assay [13] addresses TY145 (SEQ ID NO 3) variant G182A. Described as above.
The target in assay [14] is TY145 (SEQ ID NO 3) variant S114A. The description is as above.
Assay [15] has as its target TY145 (SEQ ID NO 3) variant Y240R. Described as above.
In assay [16] the target is TY145 (SEQ ID NO 3) variant Q70N. The description is as above.
For assay [17], the target named is TY145 (SEQ ID NO 3) variant L184Y. Described as above.
Chain of TY145 (SEQ ID NO 3) variant L184Y (chain, as listed by the source L184Y L184Y limits assumed): as the sequence (chain, as listed by the source L184F L184F limits assumed) above, with F184Y counted along it
Assay [18] has as its target TY145 (SEQ ID NO 3) variant Q70A. Described as above.
The target of assay [19] is TY145 (SEQ ID NO 3) variant S173P + S175P + F180Y + G182A. Put plainly: Ki fitted from Suc-AAPF-pNA activity in Model B detergent; IF relative to SEQ ID NO 3 comprising S173P + S175P + F180Y (second printed row for this variant).
For assay [20], the target named is TY145 (SEQ ID NO 3) variant S173P + S175P + I178F + F180Y. The assay is described as above.
The target of assay [21] is TY145 (SEQ ID NO 3) variant S173P + S175P + F180Y + L184F. The assay is described as above.
Assay [22] addresses TY145 (SEQ ID NO 3) variant Q70N + S173P + S175P. Put plainly: Ki fitted from Suc-AAPF-pNA activity in Model B detergent; IF relative to SEQ ID NO 3 comprising S173P + S175P.
Assay [23] deals with TY145 (SEQ ID NO 3) variant S114V + S173P + S175P. The description is as above.
Chain of TY145 (SEQ ID NO 3) variant S114V + S173P + S175P (chain, as listed by the source S114V S173P S175P S114V S173P S175P limits assumed): as the sequence (chain, as listed by the source L184F L184F limits assumed) above, with S114V, S173P, S175P, F184L counted along it
Assay [24] has as its target TY145 (SEQ ID NO 3) variant I150L + S173P + S175P. Described as above.

Chain of TY145 (SEQ ID NO 3) variant I150L + S173P + S175P (chain, as listed by the source I150L S173P S175P I150L S173P S175P limits assumed): as the sequence (chain, as listed by the source L184F L184F limits assumed) above, with I150L, S173P, S175P, F184L counted along it
Chain of TY145 (SEQ ID NO 3) variant Q70N + S173P + S175P (chain, as listed by the source Q70N S173P S175P Q70N S173P S175P limits assumed): as the sequence (chain, as listed by the source L184F L184F limits assumed) above, with Q70N, S173P, S175P, F184L counted along it
Chain of TY145 (SEQ ID NO 3) variant G182A (chain, as listed by the source G182A G182A limits assumed): as the sequence (chain, as listed by the source L184F L184F limits assumed) above, with G182A, F184L counted along it

“Inhibitor 1: Cbz-Gly-Ala-NHCH(CH2C6H4pOH)C(OH)(SO3Na)-H (peptide)”: the IF (binding constant improvement factor, relative Ki) in assay [1] is 1; in [2] it was 1.38; in [3], 1.73; in assay [4], 1.19; in assay [5], 1.05; in assay [6] it was 3.44. Moreover, the IF (binding constant improvement factor, relative Ki) in assay [7] worked out at 2.31; in assay [8], 8.53; in assay [9], 2.27; in [10], 3.68; in assay [11], 1.11; in assay [12], 4.94. In addition, the IF (binding constant improvement factor, relative Ki) was 1.86 in [13]; 2.14 in assay [14]; 1.19 in [15]; 3.33 in assay [16]; 4.47 in assay [17]; 2.54 in assay [18]. Besides, the IF (binding constant improvement factor, relative Ki) in assay [19] was 2.01; in assay [20], 1.83; in assay [21] it was 3.02; in assay [22], 4.48; in assay [23], 1.83; in [24], 2.05.
